{"source": "paper PMC6751199", "about": "“A synthetic metabolic network for physicochemical homeostasis” (Nature Communications, 2019)", "key": {"[1]": {"target": "T1, OpuA (ATP-driven glycine betaine transporter) (Lactococcus lactis, UniProt Q9RQ05)", "T1 construct": "gene busAB; ABC transporter complex purified by Ni-Sepharose in DDM (tag not described here), expressed in L. lactis, co-reconstituted with ArcD2 in lipid vesicles", "T1 sequence (Q9RQ05 1-573)": "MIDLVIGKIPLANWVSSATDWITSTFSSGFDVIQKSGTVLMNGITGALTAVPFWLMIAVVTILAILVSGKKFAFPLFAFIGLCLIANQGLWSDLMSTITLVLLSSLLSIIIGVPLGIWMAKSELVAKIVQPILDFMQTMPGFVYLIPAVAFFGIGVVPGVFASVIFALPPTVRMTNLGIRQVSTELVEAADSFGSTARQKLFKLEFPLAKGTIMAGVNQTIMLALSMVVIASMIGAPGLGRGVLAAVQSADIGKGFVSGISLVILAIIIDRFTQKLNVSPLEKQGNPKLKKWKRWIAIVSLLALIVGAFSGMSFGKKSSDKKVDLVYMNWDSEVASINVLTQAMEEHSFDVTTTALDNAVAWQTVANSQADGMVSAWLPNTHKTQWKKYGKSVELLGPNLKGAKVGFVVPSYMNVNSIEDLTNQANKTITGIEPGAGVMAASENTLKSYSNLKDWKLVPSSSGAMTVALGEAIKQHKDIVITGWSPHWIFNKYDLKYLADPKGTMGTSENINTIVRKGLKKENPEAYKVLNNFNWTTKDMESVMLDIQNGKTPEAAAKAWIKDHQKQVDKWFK", "T1 sequence (Q9RQ06 1-407 partner)": "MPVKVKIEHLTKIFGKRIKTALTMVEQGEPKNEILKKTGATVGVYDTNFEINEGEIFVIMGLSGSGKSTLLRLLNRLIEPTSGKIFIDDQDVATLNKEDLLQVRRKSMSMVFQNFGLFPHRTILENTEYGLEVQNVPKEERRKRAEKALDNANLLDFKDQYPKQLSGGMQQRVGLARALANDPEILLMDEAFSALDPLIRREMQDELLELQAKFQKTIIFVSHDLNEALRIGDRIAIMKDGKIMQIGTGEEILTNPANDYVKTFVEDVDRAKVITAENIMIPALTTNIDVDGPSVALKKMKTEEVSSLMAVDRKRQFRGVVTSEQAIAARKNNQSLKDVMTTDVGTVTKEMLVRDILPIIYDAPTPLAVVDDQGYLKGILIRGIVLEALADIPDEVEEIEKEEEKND", "experiment": "[…]-glycine betaine uptake in OpuA/ArcD2 vesicles", "format": "biochemical", "settings": "100 mM KPi pH 7.0, 250 mM KCl, 30 °C; ATP regenerated inside from arginine; 18 µM glycine betaine; labelled compound"}, "[2]": {"target": "T2, ArcD2 (arginine/ornithine antiporter) (Lactococcus lactis, UniProt Q9CE19)", "T2 construct": "full length, cleavable C-terminal 10His tag (cleavage not described), expressed in L. lactis JP9000 (arcD1D2 deleted), purified in DDM, reconstituted in DOPE/DOPC/DOPG vesicles", "T2 sequence (Q9CE19 1-497)": "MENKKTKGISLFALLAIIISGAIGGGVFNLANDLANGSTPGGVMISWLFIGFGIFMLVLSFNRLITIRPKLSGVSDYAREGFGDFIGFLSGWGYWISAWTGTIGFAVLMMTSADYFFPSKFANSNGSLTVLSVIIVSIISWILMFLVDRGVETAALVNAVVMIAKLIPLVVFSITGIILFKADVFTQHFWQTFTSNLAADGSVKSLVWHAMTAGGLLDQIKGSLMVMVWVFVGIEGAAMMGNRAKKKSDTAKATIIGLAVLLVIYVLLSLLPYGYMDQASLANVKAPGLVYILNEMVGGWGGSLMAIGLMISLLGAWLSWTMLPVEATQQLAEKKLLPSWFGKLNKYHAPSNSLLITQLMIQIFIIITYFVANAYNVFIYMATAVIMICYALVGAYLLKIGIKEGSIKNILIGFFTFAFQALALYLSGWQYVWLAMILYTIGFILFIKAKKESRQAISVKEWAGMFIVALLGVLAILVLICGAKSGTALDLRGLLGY", "experiment": "[…]-arginine uptake in ArcD2 proteoliposomes loaded with citrulline", "format": "biochemical", "settings": "50 mM KPi pH 7.0, 30 °C; counter-substrate 10 µM 14C-arginine outside; 1 or 10 mM citrulline inside; electrogenic"}, "[3]": {"target": "T2, ArcD2 (arginine/ornithine antiporter)", "experiment": "[…]-arginine uptake in ArcD2 proteoliposomes", "format": "biochemical", "settings": "50 mM KPi pH 7.0, 30 °C; 10 µM arginine outside, counter-substrate L-ornithine inside; labelled compound"}, "purified protein [4]": {"substrate": "N=C(N)NCCC[C@H](N)C(=O)O", "experiment": "purified protein", "format": "biochemical, Lactococcus lactis", "settings": "50 mM KPi pH 7.0, 30 °C, 0-480 µM L-arginine"}, "purified protein [5]": {"substrate": "NC(=O)OP(=O)(O)O", "experiment": "purified protein", "format": "biochemical, Lactococcus lactis", "settings": "50 mM KPi pH 7.0, 30 °C, excess L-ornithine, back reaction (citrulline formation)"}, "purified protein [6]": {"substrate": "NCCC[C@H](N)C(=O)O", "experiment": "purified protein", "settings": "50 mM KPi pH 7.0, 30 °C, excess carbamoyl-phosphate, back reaction (citrulline formation)"}, "[7]": {"substrate": "NC(=O)OP(=O)(O)O", "experiment": "ATP/ADP ratio by PercevalHR fluorescence, pH-corrected with pyranine", "format": "biochemical, Lactococcus lactis", "settings": "50 mM KPi pH 7.0, 5 mM MgSO4, 30 °C, excess ADP"}, "[8]": {"substrate": "Nc1ncnc2c1ncn2[C@@H]1O[C@H](COP(=O)(O)OP(=O)(O)O)[C@@H](O)[C@H]1O", "experiment": "ATP/ADP ratio by PercevalHR fluorescence, pH-corrected with pyranine", "format": "biochemical, Lactococcus lactis", "settings": "50 mM KPi pH 7.0, 5 mM MgSO4, 30 °C, excess carbamoyl-phosphate"}}}
{"molecule": "C[N+](C)(C)CC(=O)[O-]", "note": "[glycine betaine]", "values": [{"measurement": "14C-glycine betaine uptake in OpuA/ArcD2 vesicles", "setting": "[1]", "result": "OpuA is constitutively active and imports glycine betaine at the expense of ATP"}]}
{"molecule": "NC(=O)NCCC[C@H](N)C(=O)O", "note": "[L-citrulline]", "values": [{"measurement": "14C-arginine uptake in ArcD2 proteoliposomes loaded with citrulline", "setting": "[2]", "result": "ArcD2 exchanges arginine for citrulline, albeit at a much lower rate"}]}
{"molecule": "N=C(N)NCCC[C@H](N)C(=O)O", "note": "[L-arginine]", "values": [{"measurement": "14C-arginine uptake in ArcD2 proteoliposomes", "setting": "[3]", "result": "demonstrated exchange of arginine for ornithine"}]}
{"molecule": "ArcA (arginine deiminase) (Lactococcus lactis subsp. lactis Il1403) (protein, full length, cleavable N-terminal 6His tag (cleavage not described), expressed from pNZarcA in L. lactis NZ9000, Ni-Sepharose and Superdex 200) MNNGINVNSEIGKLKSVLLHRPGAEVENITPDTMKQLLFDDIPYLKIAQKEHDFFAQTLRDNGAETVYIENLATEVFEKSSETKEEFLSHLLHEAGYRPGRTYDGLTEYLTSMSTKDMVEKIYAGVRKNELDIKRTALSDMAGSDAENYFYLNPLPNAYFTRDPQASMGVGMTINKMTFPARQPESLITEYVMANHPRFKDTPIWRDRNHTTRIEGGDELILNKTTVAIGVSERTSSKTIQNLAKELFANPLSTFDTVLAVEIPHNHAMMHLDTVFTMINHDQFTVFPGIMDGAGNINVFILRPGKDDEVEIEHLTDLKAALKKVLNLSELDLIECGAGDPIAAPREQWNDGSNTLAIAPGEIVTYDRNYVTVELLKEHGIKVHEILSSELGRGRGGARCMSQPLWREDL", "values": [{"measurement": "Km", "setting": "purified protein [4]", "result": 26.5, "unit": "µM"}, {"measurement": "kcat", "setting": "purified protein [4]", "result": 12, "unit": "s⁻¹"}]}
{"molecule": "ArcB (ornithine transcarbamoylase) (Lactococcus lactis subsp. lactis Il1403) (protein, full length, cleavable N-terminal 6His tag (cleavage not described), expressed from pNZarcB in L. lactis NZ9000, Ni-Sepharose and Superdex 200) MTSPLITKAEVNSVFQGRSLLAEKDFTPAEINYLVDFGLHLKALKQQNIPHHYLEGKNIALLFAKTSTRTRAAFTTAAIDLGAHPEYLGANDIQLGIKESTEDTARVLGSMFDAIERRGFSQKEVEDLAKYSGVPVWNGLTDDWHPTQMIADFMTVKENFGHLKGLTLVYVGDGRNNMANSLIVTGSMLGVNVHIVAPDSLHPTKEVMDIANKFAEKSGAKPLATSNIEEGVKGANIIYSDVWVSMGESNWEERVKLLTPYRITMDMLKMTGNADNGQLIFMHCLPAFHDTETEYGKEIKEKYGLTEMEVTDEVFRSKYARQFEEAENRMHSIKAIMAATLGNLFIPAVPEDFK", "values": [{"measurement": "Km", "setting": "purified protein [5]", "result": 1900, "unit": "µM"}, {"measurement": "kcat", "setting": "purified protein [5]", "result": 2900, "unit": "s⁻¹"}, {"measurement": "Km", "setting": "purified protein [6]", "result": 700, "unit": "µM"}, {"measurement": "kcat", "setting": "purified protein [6]", "result": 2300, "unit": "s⁻¹"}]}
{"molecule": "ArcC1 (carbamate kinase) (Lactococcus lactis subsp. lactis Il1403) (protein, full length, cleavable N-terminal 10His tag (cleavage not described), expressed from pNZarcC1 in L. lactis NZ9000, Ni-Sepharose and Superdex 200) MVKRIVVALGGNAILSKDPSAKAQKEALEVTAEQLMPLIKDNDRQMVVTHGNGPQVGNLLLQQLGSDSEKNPAMPLDTVGAMTQGEIGFWTVQAFTRAMANNGLEHYPVISAVTQTLVDENDPAFKNASKPIGPFYTEEQLPEIKKQFPDWELMEDAGRGYRRVVPSPKPLEIIEAKAFGPILESGSLLIASGGGGIPVIKDGKGYQGVEAVIDKDFSAAKLAEMVGADELLILTSGGDVYLNYGKENQVHLETVKVSEMRKYVDEERFAKGSMGPKVEAAVSFVERTGKTATITSLDNVENFVKSGSGTRIVP", "values": [{"measurement": "Km", "setting": "[7]", "result": 700, "unit": "µM"}, {"measurement": "kcat", "setting": "[7]", "result": 420, "unit": "s⁻¹"}, {"measurement": "Km", "setting": "[8]", "result": 1000, "unit": "µM"}, {"measurement": "kcat", "setting": "[8]", "result": 310, "unit": "s⁻¹"}]}
